# Test results published in the supplement of paper PMC12783771.
# ± gives the standard deviation of the averaged measurements.
# B1: library; a variant is named by its letters at X, in order (parent)
# chain: MNIQIGELAKRTACPVVTIRFYEQEGLLPPPGRSRGNFRLYGEEHVERLQFIRHCRSLDMPLSXVRTLLSYRKRPDQDCGEVXMLLDEHIRQVESRIGALLELXHHXVELREACSGARPAQSCGILQXLSXCVCXTRGTTAHXSD
# Assays:
# [1] = variants of: B1; test: sfGFP reporter fluorescence (15 h) (µM FITC); higher = higher leak; conditions: library round: Round 3; ligand: none
# Protocol: (§1)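 Cell-free biosensing: 1 µL Echo-assembled CFE reactions with linear PbrR variant templates (5 nM) and pPbrR-sfGFP reporter, with 1 µM Pb, 30 µM Zn or no ligand; endpoint sfGFP fluorescence after 15 h at 30 °C calibrated as µM FITC. Round 3 ML-predicted PbrR mutants; up to 3 biological replicates.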
# [2] = variants of: B1; test: sfGFP reporter fluorescence (15 h) (µM FITC); higher = stronger transcriptional activation; conditions: library round: Round 3
# Protocol: as §1
Variant,sfGFP reporter fluorescence [1],sfGFP reporter fluorescence ([2]; ligand: 1 µM Pb),sfGFP reporter fluorescence ([2]; ligand: 30 µM Zn)
ENKCMDAK,0.33 ± 0.045,1.43 ± 0.15,2.44 ± 0.15
LCKCGAAP H54C C55P H106L,0.0458 ± 0.0017,0.0424 ± 0.0028,0.0474 ± 0.0026
DNRCMDAK,1.49 ± 0.11,2.51 ± 0.053,2.61 ± 0.05
KNVCGDDP M60L P61S,1.34 ± 0.11,3.29 ± 0.12,2.58 ± 0.36
KFVLGDDT H106A,0.0446 ± 0.0026,0.549 ± 0.023,0.095 ± 0.0055
DNRCGAAP,1.21 ± 0.066,2.35 ± 0.047,2.34 ± 0.039
DNRLHCDL E109L,0.0447 ± 0.0052,0.094 ± 0.0039,0.23 ± 0.0064
DNRLGAPL,0.0656 ± 0.0041,0.262 ± 0.0096,0.905 ± 0.11
LCKCGAAP V16C H54C C55P H106L,0.0465 ± 0.0012,0.04402 ± 0.00034,0.0492 ± 0.00085
LIKCGAAP H54C C55P H106L,0.0448 ± 0.0034,0.0419 ± 0.0013,0.0486 ± 0.0017
NNKCMDDP M60L P61N,2.66 ± 0.24,3.55 ± 0.13,3.4 ± 0.14
LIVCGAAP V16C H54C C55P H106A,0.0452 ± 0.0017,0.0428 ± 0.0019,0.0456 ± 0.0037
LIVCGAAP V16C H54C C55P H106L,0.0465 ± 0.0015,0.0427 ± 0.0018,0.0473 ± 0.0049
KNKCIDDP M60L P61N,1.99 ± 0.26,3.23 ± 0.31,2.88 ± 0.25
DTKCGSAP,0.21 ± 0.0021,1.43 ± 0.041,2.22 ± 0.1
DNKLGDDP,0.0412 ± 0.002,0.0516 ± 0.0024,0.416 ± 0.055
KNVLMDDP M60L P61N,0.606 ± 0.027,1.64 ± 0.097,2.45 ± 0.11
DNRCIDDP M60L P61N,0.808 ± 0.044,1.53 ± 0.025,2.29 ± 0.32
KCVCMDDP V16C,0.185 ± 0.012,1.75 ± 0.16,0.434 ± 0.039
DCKLGADY V16C H106A,0.0446 ± 0.0041,0.232 ± 0.014,0.0501 ± 0.00089
KNKCSDDP M60L P61N,2.09 ± 0.17,3.3 ± 0.17,3.18 ± 0.21
KIVLGDDR L62I,0.0483 ± 0.0021,0.453 ± 0.018,0.09962 ± 0.00071

Variant,sfGFP reporter fluorescence [1],sfGFP reporter fluorescence ([2]; ligand: 1 µM Pb),sfGFP reporter fluorescence ([2]; ligand: 30 µM Zn)
DTKCGADI,0.227 ± 0.0097,1.54 ± 0.036,2.16 ± 0.09
KFVLGDDP I90A H106A,0.0469 ± 0.002,0.441 ± 0.013,0.0549 ± 0.0013
DNVLGDDY H54A H142C,0.0421 ± 0.0015,0.0519 ± 0.0017,0.136 ± 0.0031
KNVEGDDP M60L P61N,0.043 ± 0.00089,0.0385 ± 0.00085,0.047 ± 0.0012
LILCGAAP V16C H54C C55P H106A,0.0465 ± 0.0014,0.0436 ± 0.0014,0.0502 ± 0.002
DVVLGDDR H106A,0.043 ± 0.0021,0.126 ± 0.007,0.0489 ± 0.0029
DNRCIDAK,0.674 ± 0.12,1.93 ± 0.22,2.51 ± 0.34
DTKLGCDL Q121A,0.0413 ± 0.00047,0.101 ± 0.0031,0.103 ± 0.0093
DNKCGSAY,0.873 ± 0.033,2.1 ± 0.24,2.35 ± 0.2
DNVCMDDP V16C P61N,0.092 ± 0.0024,0.45 ± 0.015,0.463 ± 0.01
DTKCGCDA,0.126 ± 0.0021,1.6 ± 0.12,1.51 ± 0.051
KIVLGDDR H106E,0.0556 ± 0.0015,0.573 ± 0.037,0.0612 ± 0.0023
KNVCMDDP V16C P61N,0.0997 ± 0.0099,0.636 ± 0.067,0.579 ± 0.061
DNKCIDAK M84A G124A,0.548 ± 0.043,2.01 ± 0.13,2.75 ± 0.23
DNRCMDAK D87E,1.06 ± 0.069,2.46 ± 0.12,2.56 ± 0.13
KNKCMDDP M60L P61D,3.01 ± 0.32,3.17 ± 0.26,3.28 ± 0.24
DNVCMDDP Y41F P61N,0.828 ± 0.023,2.98 ± 0.34,2.92 ± 0.049
DNKCGAAY,1.05 ± 0.072,2.12 ± 0.14,2.26 ± 0.041
DTKLGAPW V108L,0.0408 ± 0.002,0.146 ± 0.0032,0.1781 ± 0.0015
DNKCGAAP H54C C55A,0.912 ± 0.075,1.67 ± 0.091,1.92 ± 0.15
DTKLGHPY Q121A,0.0423 ± 0.0015,0.206 ± 0.019,0.289 ± 0.021
KIVCMDDP,0.424 ± 0.064,1.96 ± 0.25,1.78 ± 0.059

Variant,sfGFP reporter fluorescence [1],sfGFP reporter fluorescence ([2]; ligand: 1 µM Pb),sfGFP reporter fluorescence ([2]; ligand: 30 µM Zn)
TIVLGDDR H106A,0.0524 ± 0.0029,0.448 ± 0.023,0.0673 ± 0.0027
DTKLGSDP Q121A H142A,0.0408 ± 0.0014,0.106 ± 0.0044,0.472 ± 0.015
DTKLGDRR E109L,0.0416 ± 0.0019,0.103 ± 0.005,0.224 ± 0.0067
DNKCMDAK G124A,0.531 ± 0.049,2.11 ± 0.15,2.65 ± 0.21
KFVLGDDA H106A,0.0507 ± 0.0013,0.541 ± 0.028,0.104 ± 0.0043
DTKCIDAP I125L,0.059 ± 0.0049,0.0617 ± 0.0061,0.614 ± 0.022
DTKCMDAP G124A,0.212 ± 0.015,1.58 ± 0.084,2.41 ± 0.38
KNKCGADP M60L P61N,2.59 ± 0.17,2.95 ± 0.29,2.51 ± 0.32
DCKVGDDP V82I L85M,0.0458 ± 0.0022,0.329 ± 0.034,0.128 ± 0.0044
KNVLGDDR I90C H106A,0.0676 ± 0.0026,0.502 ± 0.032,0.74 ± 0.058
TTKCGDRP,1.83 ± 0.057,2.37 ± 0.091,2.74 ± 0.22
DSKLGMAP V108L,0.043,0.0646 ± 0.004,0.354 ± 0.015
DTKLGSPP V108L,0.0404 ± 0.0007,0.127 ± 0.0092,0.186 ± 0.0066
LILCGAAC V16C H54C C55P E81A H106A,0.0437 ± 0.0031,0.0414 ± 0.0022,0.0463 ± 0.0019
DTKLGMAP V108L,0.0403 ± 0.00095,0.0673 ± 0.0042,0.288 ± 0.018
DTKLGCDP V108L Q121A,0.043 ± 0.0018,0.117 ± 0.0039,0.116 ± 0.0027
DTKLGDAL Q121A,0.04099 ± 0.00034,0.104 ± 0.004,0.329 ± 0.015
LIVCGAAP H54C C55P H106L,0.0444 ± 0.0015,0.0432 ± 0.00085,0.0495 ± 0.0022
DNRCIDAK G124A,0.395 ± 0.042,1.51 ± 0.12,2.32 ± 0.17
LIKLGDDP V16C M60V E81A R111A,0.0752 ± 0.0081,0.0783 ± 0.012,0.0505 ± 0.0042
KNVCIDDP M60L P61N,0.453 ± 0.036,1.86 ± 0.087,2.32 ± 0.15
DTKIGDDP V108L E112A,0.0428 ± 0.0025,0.094 ± 0.0043,0.294 ± 0.03

Variant,sfGFP reporter fluorescence [1],sfGFP reporter fluorescence ([2]; ligand: 1 µM Pb),sfGFP reporter fluorescence ([2]; ligand: 30 µM Zn)
DSKLGAPW,0.043 ± 0.0014,0.138 ± 0.012,0.227 ± 0.025
KNKCTDDP M60L P61N,2.34 ± 0.2,3.48 ± 0.11,3.2 ± 0.18
DTKLGSRP V108L,0.0395 ± 0.0015,0.117 ± 0.0088,0.28 ± 0.012
DSKLGSPP V108L,0.0407 ± 0.0012,0.121 ± 0.0045,0.247 ± 0.0044
DTKCGAAP,0.264 ± 0.019,1.56 ± 0.061,2.21 ± 0.16
DCVLGDDP V16C H54A,0.0426 ± 0.0029,0.127 ± 0.0026,0.0484 ± 0.0029
DTKLGSDP V108L H142A,0.0396 ± 0.00089,0.076 ± 0.0048,0.278 ± 0.029
DSKLGNRA Q121A,0.044 ± 0.0012,0.209 ± 0.008,0.945 ± 0.054
DTKLGAPL Q121A,0.0458 ± 0.0015,0.245 ± 0.019,0.407 ± 0.017
DNKCMDAK P61N,2.25 ± 0.34,2.76 ± 0.33,3.11 ± 0.2
DNKCMDAK P61D,0.53 ± 0.072,0.903 ± 0.12,2.24 ± 0.45
DTKLGAPW Q121A,0.0438 ± 0.0019,0.216 ± 0.0053,0.277 ± 0.013
KITLGDDR H106A,0.046 ± 0.001,0.452 ± 0.026,0.0503 ± 0.0012
KNVCMDDP V16C,1.32 ± 0.056,3.46 ± 0.1,3.28 ± 0.18
DTKLGSPP V108L Q121A,0.0413 ± 0.00089,0.2 ± 0.0066,0.337 ± 0.004
DNKLGAPY V133A,0.0571 ± 0.00067,0.174 ± 0.0037,0.728 ± 0.029
DNVCIDDA M60L,0.73 ± 0.014,2.2 ± 0.24,2.23 ± 0.2
DNKCGADY G124A,0.267 ± 0.013,1.31 ± 0.084,2.05 ± 0.041
DTKLGSPL,0.0411 ± 0.0014,0.1583 ± 0.0015,0.196 ± 0.019
KFVLGDDP P61T H106A,0.0442 ± 0.0014,0.0637 ± 0.0021,0.0488 ± 0.0034
KNVCMDDP M60L P61N,0.987 ± 0.13,2.86 ± 0.2,2.86 ± 0.26
KFVLGDDR H106N,0.0633 ± 0.0012,1.16 ± 0.054,0.2633 ± 0.0014
